The series can be described thus: yeast display, Sf9 membrane polyspecificity reagent, FACS + sequencing; frameworks hold sequencing errors. In a few lines:
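Sorting gates, low and high (top ~1%), were placed on anti-HA fluorescence to track expression and on streptavidin fluorescence to track reagent binding. A clone's polyreactivity label is taken from the gate it came out of. The reagent was 10% biotinylated, detergent-solubilized Sf9 membrane, applied for 1 hour at 4 °C to galactose-induced yeast display cells.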
As for “QVQLVESGGGLVQAGGSLRLSCAASGFTFPQYAMGWYIQAPGKERELVASITRRGGSTFYADSVKGRFTISRDNAKNTVYLQMNSLKPEDTAVYYSAAGDYSRSVSRYWYTDYDYWGQGTQVTVSS”, the “polyreactivity (PSR sort gate)” value is “high polyreactivity”.
Then “QVQLVESGGGLVQAGGSLRLSCAASGFTFPRYVMGWYRQAPGKEREFVAAITFSGGSTYYADSVKGRFTNSRDNAKNTVYLQMNSLKPEDTAVYYCAAGASLWRLGLKMGYWGQGTQVTVSS”, with “low polyreactivity”; and “QVQLVESGGGLVQAGGSLRLSCAASGFTFPTYAMGWYRQAPGKERELVAAISTSGARTYYADSVKGRFTISRDNAKNTVYLQMNSLKPEDTAVYYCAVGSIYTIGFRKGYRFDYWGQGTQVTVSS”, with “high polyreactivity”; and “QVQLVESGGGLVQAGGSLRLSCAASGFTFPVYAMGWYRQATGKVRELVAAISRRGGRTYYADSVKGRFTISRDNAKNTVSLQMNSLKPEDTAVYYCNKGETLYGSVPYDYWGQGTQVTVSS”, with “high polyreactivity”.
In the case of “QVQLVESGGGLVQAGGSLRLSCAASGFTFPVYTMGWYSQAPGKERELVAAISTAGAGTYYADSVKGRFTISRDNAKNTVYLQMNSLKPEDTAVYYCAAYKRGRPEMDYWGQGTQVTVSS” it was “high polyreactivity”.
Then “QVQLVESGGGLVQAGGSLRLSCAASGFTFPWYAMGWYRQAPGKERELVAAISIGTGRTYYADSVKGRFTISRDNAKNTVYLQMNSLKPEDTAVYYCAAEDQYYEDGYWGQGTQVTVSS”, with “high polyreactivity”; and “QVQLVESGGGLVQAGGSLRLSCAASGFTFPWYAMGWYRQAPGKERELVAALTGSGGSTDYADSVKGRFTISRDNAKNTVYLQMNSLKPEDTAVYYCNAGKTIDYRDGVGYDHWGQGTQVTVSS”, with “low polyreactivity”; and “QVQLVESGGGLVQAGGSLRLSCAASGFTFPWYAMGWYSQAPGKERELVAAITSGGGSTYYADSVKGRFTISRDYAKNTVYLQMNSLKPEDTAVYYCAAVPALKWYGYEYWGQGTQVTVSS”, with “high polyreactivity”.
For “QVQLVESGGGLVQAGGSLRLSCAASGFTFPYNAMGWYRQAPVTERELVAAMSRGGGRTYYADSVKGRFTISRDNAKNTVNLQMNSLKPEDTAVYYCAKSPGQDTPYPYGYWGQGTQETVSS”, the “polyreactivity (PSR sort gate)” value is “high polyreactivity”.
Then “QVQLVESGGGLVQAGGSLRLSCAASGFTFPYNGMGWYRQAPGKERELVASISWSGASTYYADSVKGRFTISRDNAKNTVYLQMNSLKPEDTAVYYCASDPGYYSWGSSQDDYWGQGTQVTVSS”, with “low polyreactivity”; and “QVQLVESGGGLVQAGGSLRLSCAASGFTFPYYAMGWYRQAPGKERELVATIRSGGSTYYADSVKGRFTISRDNAKNTVYLQMNSLKPEDTAVYYCAKYQVLYSYDKYGYWGQGTQVTVSS”, with “low polyreactivity”.
Consider “QVQLVESGGGLVQAGGSLRLSCAASGFTFQGNVMGWYRQAPGKERELVAASTGGGGDTYSADSVKGRFTISRDNAKNTVYLQMNSLKPEDTAVYYCAAEVAPEWYWPWFFDYADGYWGQGTQVTLSS”, for which the “polyreactivity (PSR sort gate)” value is listed as “high polyreactivity”.
In the case of “QVQLVESGGGLVQAGGSLRLSCAASGFTFQKNAMGWNRQAPGKERDLVARITRSDGSTYYADSVKGRFTISRDNAKNTVYLPMNSLKPEDTAVYYWAARYCRLGSSRGGYWGQCTQVTVSS” it was “low polyreactivity”.
Then “QVQLVESGGGLVQAGGSLRLSCAASGFTFQRYTMGWYRQAPGKERELVAAISWSGGSTYYADSVKGRFTISRDNAKNSVYLQMNSLKPEDTAVYYCAAYRVIPYLSDYWGEGTQVTVSS”, with “high polyreactivity”; and “QVQLVESGGGLVQAGGSLRLSCAASGFTFQSYAMGWYRQAPGKESELVAAISWSGGSTYYADSVKGRFTISRDNAKNTVYLEMNSLKPEDTAVYYCAADAPRSYRFGYWGQGTQVTVSS”, with “high polyreactivity”; and “QVQLVESGGGLVQAGGSLRLSCAASGFTFQYNAMGWYRQAPGKERELVAAITWTGTSTYADSVKGRFTISRDNAKNTVYLQLNSLKPEDTAVYYCAARYYAPRWFSYDYWGQGTQVTVSS”, with “low polyreactivity”.
On to “QVQLVESGGGLVQAGGSLRLSCAASGFTFQYYAMGWYRQAPGKERELVAAISWGGGSTYYADSVKGRFTISRDNAKNTVYLQMNSLKPEDTAVYYCNAYEYLSAGYDYWGQGTQVTVSS”, for which the “polyreactivity (PSR sort gate)” value is “low polyreactivity”.
Then “QVQLVESGGGLVQAGGSLRLSCAASGFTFQYYAMGWYRQAPGKERELVAAISWSGGSTYYADSVKGRFTISRDNAKNTVYLQMNSLKPEDTAVYYCAAAPYTYPLGFDYWGQGTQVTVSS”, with “high polyreactivity”; and “QVQLVESGGGLVQAGGSLRLSCAASGFTFRAYAMGWYRQAPGKERELVAAISRSGTSTYYADSVKGRFTISRDNAKYTVYLQMNSLKPEDTAVYYCAARLGPYHYATKMYYWGQGTQVTVSS”, with “high polyreactivity”.
Then “QVQLVESGGGLVQAGGSLRLSCAASGFTFRAYAMGWYRQAPGKERELVAAITYSGDRTYYADSVKGRFTISRDNAKNTVYLQMNSLKPEDTAVYYCAAYGAKVNRPGYYYWGQGTQVTVSS”, with “high polyreactivity”; and “QVQLVESGGGLVQAGGSLRLSCAASGFTFRDYAMGWYRPAPGKERELVAAIDIGTTTYYADSVKGRFTISRDNAKNTVYLQMNSLKPEDSAVYYCNKGTNRSGGYDSWGQGTQVTVSS”, with “low polyreactivity”; and “QVQLVESGGGLVQAGGSLRLSCAASGFTFRDYAMGWYRQAPGKERELVAVISDSGGRTYYADSVKGRFTISRDNAKNTVYLQMNSLKPEDTAVYYCAARGYRSGGGYNYWGQGTQVTVSS”, with “high polyreactivity”.
“QVQLVESGGGLVQAGGSLRLSCAASGFTFRFYVMGWYRQAPGKERELVAAISSGGGSTYYADSVKGRFTISRDNAKNTVYLQMNSLKPEDTAVYYCNALKVSFLTITKYEYWGQGTQVTVSS”: the “polyreactivity (PSR sort gate)” value was “high polyreactivity”.
As for “QVQLVESGGGLVQAGGSLRLSCAASGFTFRGNAMGWYRQAPGKERELVAAITWNGGSTYYADSVKGRFTISRDNAKNTVYLQMNSLKPEDTAVYYCAAQYGKKRQPRFNYWGQGTQVTVSS”, the “polyreactivity (PSR sort gate)” value was “high polyreactivity”.
Then “QVQLVESGGGLVQAGGSLRLSCAASGFTFRGYAMGWYRQAPGIERELVATISRRAASTYYADTVKGRFTISRDNAKNTVYLLMNSLKPEDTAVYYCAKVNRYDDDRDGFGYWGHGTQVTVSS”, with “high polyreactivity”.
In the case of “QVQLVESGGGLVQAGGSLRLSCAASGFTFRGYAMGWYRQAPGKERELVASITYRGGSTYYADSVKGRFTISRDNAKNTVYLQMNSLKPEDTADYYCNAGFGGRRRQDAFIGTSIYDYWGQGTQVTVSS” it was “low polyreactivity”; in that of “QVQLVESGGGLVQAGGSLRLSCAASGFTFRHNVMGWYRQAPGKERELVATITWSGGRTSYADSVKGRFTISRDNAKNTVYLQMKSLKPEDTAVYYCAARFFSYSQYAYNYWGQGTQVTVSS”, “high polyreactivity”.
Then “QVQLVESGGGLVQAGGSLRLSCAASGFTFRIYAMGWYRQAPGKERELVAAITWSGGSTSYADSVKGRFTISRDNAKNTVYLQMNSLKPEDTAVYYCAAETKYSGAYPYDYWGQGTQVTVSS”, with “high polyreactivity”; and “QVQLVESGGGLVQAGGSLRLSCAASGFTFRKYVMGWYRQAPGKERELVAGISRSGSRTYYADSVKGRFTISRDNAKNTVYLQMNSLKPEDTAVYYCAASRYGKNGKYHYWGQGTQVTVSS”, with “high polyreactivity”.
Turning to “QVQLVESGGGLVQAGGSLRLSCAASGFTFRLNAMGWYRQAPGKERELVAAITRSGGNTYYADSVKGRFTISRDNAKNTVYLQMNSLKPEDTAVYYCAVRQLDRRSPKYNYWGQGTQVTVSS”, the “polyreactivity (PSR sort gate)” value was “high polyreactivity”.
In the case of “QVQLVESGGGLVQAGGSLRLSCAASGFTFRNNAMGWYRQAPGKDRELVAAITARGGSTYYADSVKGRFTISRDNAKNTVYLQMNSLKPEDTAVYYCATDDYPWGRHPWYAGYDSWGQGTQVTVSS” it was “low polyreactivity”.
With “QVQLVESGGGLVQAGGSLRLSCAASGFTFRNYAMGWYRKAPGKERELVATIDRGTTSTYYADSVKGRFTISRDNAKNTVYLQMNSLKPEDTAVYYCAARAWRYGYGYWGQGTQVTVSS”, the “polyreactivity (PSR sort gate)” value is recorded as “high polyreactivity”.
As to “QVQLVESGGGLVQAGGSLRLSCAASGFTFRQNAKGWYRQAPGKERELVAVITKSAGSTYYADSVKGRFTISRDNAKNTVYLQMNSLKPEDTAVFYCNKRQRFVSSFRRSQGIGWEDDYWGQGTQVTVSS”, the “polyreactivity (PSR sort gate)” value is “low polyreactivity”.
In the case of “QVQLVESGGGLVQAGGSLRLSCAASGFTFRQNAMGWYRQAPRKERELVAAISSGGRTKYADSVKGRFTISRDNANNTVYLHMNSLKPEDTALYYCAADKRVYTQLNDSWGQGTQVTVSS” it was “high polyreactivity”; in that of “QVQLVESGGGLVQAGGSLRLSCAASGFTFRRNAMGWYRQAPGKEWEFVAAITGRGTGTYYADSVKGRFTISRDNAKNTVYLQMYILKPEDTAGYYCNDDPVRYLFNRYDYWGQGTQVTVSS”, “high polyreactivity”; in that of “QVQLVESGGGLVQAGGSLRLSCAASGFTFRRYAMGRYRQAPGKERELVAAISRSTGSTYYADSVKGRFSLSRDNAKNSVYLQMNSLKPEDTAVFYCNVAGSARVNTLVLSYEYWGQGSQVTVSS”, “high polyreactivity”.
Then “QVQLVESGGGLVQAGGSLRLSCAASGFTFRRYVMGWYRQAPGKERELVAAISSGGRTNYADSVKGRFTISRYNAKNTVYLQMNSLKPEDTAVYYCGYLDRYHHLRYWGQGTQVTVSS”, with “high polyreactivity”; and “QVQLVESGGGLVQAGGSLRLSCAASGFTFRSNAMGWSRQAPGKERELVAAISYSGGDTYYADSVKGRFTISRDNAKNTVYLQMNSLKPEDTAVYYCAADDPASPLGEYWGQGTQVSVSS”, with “low polyreactivity”.
Then “QVQLVESGGGLVQAGGSLRLSCAASGFTFRSYAMGLYRQAPGKEREFVAAINGRSGSTYADSVKGRFTISRDNAKNTVYLQMISLKPEDTAVYYCAARVRRGSTQAQFYYWGQGTQVTVSS”, with “high polyreactivity”.
Consider “QVQLVESGGGLVQAGGSLRLSCAASGFTFRSYTMGWYRQAPGKERELVASIRYGGGSTYYADSVKGRFTISRDNAKNTVYLQMNSLKPEDTAVYYCSAESAWTSPYDYWGQGTQVTVSS”, for which the “polyreactivity (PSR sort gate)” value was “high polyreactivity”.

The values are drawn from the nanobody polyreactivity screen of Harvey et al. (2022).
